Data: patent publication US20140011734A1 (Sanofi, published 2014)
Starred links: 1 amine or outer side, 2 acyl side, 3 side chain; linkers in the order of their positions; H or OH if unused. Non-standard residues stand in square brackets, D forms with d. Amp = L-2-amino-3-methoxypropionic acid, COC[C@H](N[*:1])C(=O)[*:2]; Amb = L-2-amino-4-methoxybutyric acid, COCC[C@H](N[*:1])C(=O)[*:2]; NHCH2(1,3-C6H4)CH2CO = O=C(Cc1cccc(CN[*:1])c1)[*:2]; Nle = CCCC[C@H](N)C(=O)O; Abu = CC[C@H](N)C(=O)O; Aoc = NCCCCCCCC(=O)O; Ahp = NCCCCCCC(=O)O; βAla = NCCC(=O)O

Assays:
[1] = target: T1, blood platelet receptor glycoprotein Ib-IX-V complex (GPIb) (human, UniProt P07359 17-652; P13224 26-206; P14770 17-177; P40197 17-560); experiment: inhibition of static adhesion of human platelets to coated vWF-A1; grade C = IC50 lower than 1 µM
T1 construct: whole, on cells; also called GPIb complex; GPIb receptor
Procedure: (§1) Platelet rich plasma was carefully transferred again to fresh containers, PGE1 (0.5 μg/ml, Sigma) was added and the suspension was allowed to rest for 5 min. This was followed by another centrifugation step for 15 min at 360 g. The supernatant was discarded and the cell pellets were carefully resuspended in tyrode buffer (NaCl, 137 mM (Sigma S-3014); KCl, 2.7 mM (Sigma P-9541); NaHCO₃,12 mM (Riedel deHaen 31437); NaH₂PO₄×2H₂O, 0.36 mM (Merck 6345); MgCl₂×6 H₂O, 1 mM (Sigma M-2670); Hepes, 10 mM (Sigma H-1016); glucose, 5.6 mM (Merck 8342); BSA, 0.1% (Sigma A7906)), and PGE1 (0.25 μg/ml) was added. After 5 min of resting the suspension was spun down for 15 min at 300 g. The supernatant was discarded and the pellets were carefully resuspended in TBS buffer (Tris-HCl, 50 mM (Fluka 93371); NaCl, 120 mM (Sigma S-3014); KCl, 2.7 mM (Sigma P-9541); CaCl₂, 0.05 mM (Sigma C-3306); MgCl₂×6 H₂O, 2 mM (Sigma M-2670); BSA, 0.1% (Sigma A7906); pH 7.4). The platelet count was adjusted to 2×10⁵ cells/μl, and the suspensions from individual donors were pooled at this stage. The platelets were allowed to rest for 30 min at room temperature before calcein AM (2.5 μM per 2×10⁵ cells/pi (Molecular Probes C-3099)) was added. This was followed by 15 min incubation in the dark. Cells were diluted to 5×10⁴ cells/μl and ReoPro (3 μg/ml (Centocor B. V., Leiden, N L)) was added, followed by a 10 min incubation period in the dark before adding the platelets to the assay plates.
96 well plates (Greiner hb, black, clear bottom, F, 655097) were coated with human recombinant vWF-A1 domain (1.5 μg/well, AA 475-706, expressed in E. coli) in Tris buffer (pH 7.4; Tris-HCl, 25 mM; NaCl, 150 mM) and incubated for 1 h at room temperature. After washing the wells 3× with TBS, blocking buffer (TBS with 5% BSA) was added followed by an incubation for 1 h. The wells were washed again 3× with TBS before 200 μl TBS were added to each well, preventing them from drying out. TBS was flicked out and serial dilutions of the test compound were added. The washed and calcein AM labeled thrombocytes were added to the wells (2.5×10⁶ cells/well). Following an adhesion period of 1.5 h in the dark the wells were washed 3× with TBS. Measurement of fluorescence per well was performed in a SpectraMax M5 reader (Molecular Devices). From the raw data % inhibition and IC₅₀ values were calculated.

[2] = target: T1, blood platelet receptor glycoprotein …; experiment: inhibition of static adhesion of human platelets to coated vWF-A1; grade A = showed activity at 10 µM
Procedure: as §1, with “The platelet count was adjusted to 2×10⁵ cells/μl, and the suspensions from individual donors were pooled at this stage. The platelets were allowed to rest for 30 min at room temperature before calcein AM (2.5 μM per 2×10⁵ cells/pi (Molecular Probes C-3099)) was added. This was followed by 15 min incubation in the dark. Cells were diluted to 5×10⁴ cells/μl and ReoPro (3 μg/ml (Centocor B. V., Leiden, N L)) was added, followed by a 10 min incubation period in the dark before adding the platelets to the assay plates.” left out
96 well plates (Greiner hb, black, clear bottom, F, 655097) were coated with human recombinant vWF-A1 domain (1.5 μg/well, AA 475-706, expressed in E. coli) in Tris buffer (pH 7.4; Tris-HCl, 25 mM; NaCl, 150 mM) and incubated for 1 h at room temperature. […] Measurement of fluorescence per well was performed in a SpectraMax M5 reader (Molecular Devices). From the raw data % inhibition and IC₅₀ values were calculated.

[3] = target: T1, blood platelet receptor glycoprotein …; experiment: cell-based or functional assay

T1 sequence (P07359 17-652, chain 1 of 4): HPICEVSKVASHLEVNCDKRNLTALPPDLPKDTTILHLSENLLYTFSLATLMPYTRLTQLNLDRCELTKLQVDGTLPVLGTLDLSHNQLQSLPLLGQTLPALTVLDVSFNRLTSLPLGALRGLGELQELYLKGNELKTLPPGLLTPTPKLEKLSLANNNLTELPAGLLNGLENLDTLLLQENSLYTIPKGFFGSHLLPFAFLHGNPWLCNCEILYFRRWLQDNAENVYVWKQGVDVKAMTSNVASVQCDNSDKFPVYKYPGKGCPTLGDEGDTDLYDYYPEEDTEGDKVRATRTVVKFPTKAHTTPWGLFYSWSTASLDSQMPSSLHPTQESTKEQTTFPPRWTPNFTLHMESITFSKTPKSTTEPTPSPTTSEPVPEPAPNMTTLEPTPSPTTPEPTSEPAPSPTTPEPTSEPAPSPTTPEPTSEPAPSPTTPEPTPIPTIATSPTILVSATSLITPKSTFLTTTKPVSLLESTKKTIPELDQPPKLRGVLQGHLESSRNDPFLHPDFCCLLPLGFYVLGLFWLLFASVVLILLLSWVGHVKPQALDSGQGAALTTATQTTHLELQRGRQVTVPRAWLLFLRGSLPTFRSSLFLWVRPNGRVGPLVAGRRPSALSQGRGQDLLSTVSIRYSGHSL
T1 sequence (P13224 26-206, chain 2 of 4): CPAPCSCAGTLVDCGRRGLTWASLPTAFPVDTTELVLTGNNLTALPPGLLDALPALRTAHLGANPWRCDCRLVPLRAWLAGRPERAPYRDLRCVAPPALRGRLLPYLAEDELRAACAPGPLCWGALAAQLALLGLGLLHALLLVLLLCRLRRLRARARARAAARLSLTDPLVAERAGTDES
T1 sequence (P14770 17-177, chain 3 of 4): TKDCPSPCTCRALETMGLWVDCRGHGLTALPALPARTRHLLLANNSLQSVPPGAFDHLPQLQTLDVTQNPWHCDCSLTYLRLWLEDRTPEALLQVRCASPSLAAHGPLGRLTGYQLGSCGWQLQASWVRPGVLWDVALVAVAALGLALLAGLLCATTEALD
T1 sequence (P40197 17-560, chain 4 of 4): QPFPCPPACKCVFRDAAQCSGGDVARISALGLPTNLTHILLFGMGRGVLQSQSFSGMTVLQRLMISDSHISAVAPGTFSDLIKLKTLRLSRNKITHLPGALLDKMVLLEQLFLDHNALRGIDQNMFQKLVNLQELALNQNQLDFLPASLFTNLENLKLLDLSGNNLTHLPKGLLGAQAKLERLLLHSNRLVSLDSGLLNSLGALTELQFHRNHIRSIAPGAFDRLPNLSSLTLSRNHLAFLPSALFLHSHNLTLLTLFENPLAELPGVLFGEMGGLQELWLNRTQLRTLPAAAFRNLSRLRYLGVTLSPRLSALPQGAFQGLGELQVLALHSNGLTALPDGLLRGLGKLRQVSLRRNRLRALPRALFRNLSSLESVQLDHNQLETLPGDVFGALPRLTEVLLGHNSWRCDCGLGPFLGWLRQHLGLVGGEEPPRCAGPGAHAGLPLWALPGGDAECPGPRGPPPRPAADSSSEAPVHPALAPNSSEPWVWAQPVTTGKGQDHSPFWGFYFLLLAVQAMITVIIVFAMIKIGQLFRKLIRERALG

Binder	IC50 [1]	binding result [2]	IC50 (average value), ristocetin-induced agglutination of human whole blood, impedance aggregometry [3]
cyclo(LHNL[Ahp]TER[Abu]A) (SMILES CC[C@@H]1NC(=O)[C@H](CCCNC(=N)N)NC(=O)[C@H](CCC(=O)O)NC(=O)[C@H]([C@@H](C)O)NC(=O)CCCCCCNC(=O)[C@H](CC(C)C)NC(=O)[C@H](CC(N)=O)NC(=O)[C@H](Cc2c[nH]cn2)NC(=O)[C@H](CC(C)C)NC(=O)[C@H](C)NC1=O) [Cyclo[Leu-His-Asn-Leu-NH-(CH2)6-CO-Thr-Glu-Arg-Abu-Ala]]	< 1000 nM	–	–
cyclo(LHNL[Ahp]TER[Nle]A) (SMILES CCCC[C@@H]1NC(=O)[C@H](CCCNC(=N)N)NC(=O)[C@H](CCC(=O)O)NC(=O)[C@H]([C@@H](C)O)NC(=O)CCCCCCNC(=O)[C@H](CC(C)C)NC(=O)[C@H](CC(N)=O)NC(=O)[C@H](Cc2c[nH]cn2)NC(=O)[C@H](CC(C)C)NC(=O)[C@H](C)NC1=O) [Cyclo[Leu-His-Asn-Leu-NH-(CH2)6-CO-Thr-Glu-Arg-Nle-Ala]]	< 1000 nM	–	–
cyclo(LHNL[Ahp]TER[Amb]A) (SMILES COCC[C@@H]1NC(=O)[C@H](CCCNC(=N)N)NC(=O)[C@H](CCC(=O)O)NC(=O)[C@H]([C@@H](C)O)NC(=O)CCCCCCNC(=O)[C@H](CC(C)C)NC(=O)[C@H](CC(N)=O)NC(=O)[C@H](Cc2c[nH]cn2)NC(=O)[C@H](CC(C)C)NC(=O)[C@H](C)NC1=O) [Cyclo[Leu-His-Asn-Leu-NH-(CH2)6-CO-Thr-Glu-Arg-Amb-Ala]]	< 1000 nM	–	–
cyclo(LHNL[βAla]GTERMA) (SMILES CSCC[C@@H]1NC(=O)[C@H](CCCNC(=N)N)NC(=O)[C@H](CCC(=O)O)NC(=O)[C@H]([C@@H](C)O)NC(=O)CNC(=O)CCNC(=O)[C@H](CC(C)C)NC(=O)[C@H](CC(N)=O)NC(=O)[C@H](Cc2c[nH]cn2)NC(=O)[C@H](CC(C)C)NC(=O)[C@H](C)NC1=O) [Cyclo[Leu-His-Asn-Leu-NH-(CH2)2-CO-Gly-Thr-Glu-Arg-Met-Ala]]	–	binds	–
cyclo(LHNL[NHCH2(1,3-C6H4)CH2CO]TERMA) (SMILES CSCC[C@@H]1NC(=O)[C@H](CCCNC(=N)N)NC(=O)[C@H](CCC(=O)O)NC(=O)[C@H]([C@@H](C)O)NC(=O)Cc2cccc(c2)CNC(=O)[C@H](CC(C)C)NC(=O)[C@H](CC(N)=O)NC(=O)[C@H](Cc2c[nH]cn2)NC(=O)[C@H](CC(C)C)NC(=O)[C@H](C)NC1=O) [Cyclo[Leu-His-Asn-Leu-NH-X4-X3-X2-X1-CO-Thr-Glu-Arg-Met-Ala] of example 2]	< 1000 nM	–	< 1000 nM
cyclo(LHNL[Ahp]TERMA) (also: made as TFA salt and as acetate salt, Made as trifluoroacetic acid salt and also as acetic acid salt) [Cyclo[Leu-His-Asn-Leu-NH-(CH2)6-CO-Thr-Glu-Arg-Met-Ala]]	< 1000 nM	–	< 1000 nM
cyclo(LHNL[Ahp]VERMA) (SMILES CSCC[C@@H]1NC(=O)[C@H](CCCNC(=N)N)NC(=O)[C@H](CCC(=O)O)NC(=O)[C@H](C(C)C)NC(=O)CCCCCCNC(=O)[C@H](CC(C)C)NC(=O)[C@H](CC(N)=O)NC(=O)[C@H](Cc2c[nH]cn2)NC(=O)[C@H](CC(C)C)NC(=O)[C@H](C)NC1=O) [Cyclo[Leu-His-Asn-Leu-NH-(CH2)6-CO-Val-Glu-Arg-Met-Ala]]	–	binds	–
cyclo(LHNL[Aoc]TERMA) (SMILES CSCC[C@@H]1NC(=O)[C@H](CCCNC(=N)N)NC(=O)[C@H](CCC(=O)O)NC(=O)[C@H]([C@@H](C)O)NC(=O)CCCCCCCNC(=O)[C@H](CC(C)C)NC(=O)[C@H](CC(N)=O)NC(=O)[C@H](Cc2c[nH]cn2)NC(=O)[C@H](CC(C)C)NC(=O)[C@H](C)NC1=O) [Cyclo[Leu-His-Asn-Leu-NH-(CH2)7-CO-Thr-Glu-Arg-Met-Ala]]	< 1000 nM	–	–
cyclo(LHNL[Ahp]TER[Amp]A) (SMILES COC[C@@H]1NC(=O)[C@H](CCCNC(=N)N)NC(=O)[C@H](CCC(=O)O)NC(=O)[C@H]([C@@H](C)O)NC(=O)CCCCCCNC(=O)[C@H](CC(C)C)NC(=O)[C@H](CC(N)=O)NC(=O)[C@H](Cc2c[nH]cn2)NC(=O)[C@H](CC(C)C)NC(=O)[C@H](C)NC1=O) [Cyclo[Leu-His-Asn-Leu-NH-(CH2)6-CO-Thr-Glu-Arg-Amp-Ala]]	< 1000 nM	–	–
